B1: AaFtsH hexamer (Aquifex aeolicus VF5) (protein)
chain: MNALKNFFIWAIIIGAAIVAFNLFEGKREFTTKVSLNEVVKLVEEGKVSYAEVRGNTAIIQTKDGQKLEVTLPPNTNLVDKMVEKGVRVEVANPEPPGGWLVNVFLSWLPILFFIGIWIFLLRQMSGGGNVNRAFNFGKSRAKVYIEEKPKVTFKDVAGIEEVKEEVKEIIEYLKDPVKFQKLGGRPPKGVLLYGEPGVGKTLLAKAIAGEAHVPFISVSGSDFVEMFVGVGAARVRDLFETAKKHAPCIIFIDEIDAVGRARGAIPVGGGHDEREQTLNQLLVEMDGFDTSDGIIVIAATNRPDILDPALLRPGRFDRQIFIPKPDVRGRYEILKVHARNKKLAKDVDLEFVARATPGFTGADLENLLNEAALLAARKGKEEITMEEIEEALDRITMGLERKGMTISPKEKEKIAIHEAGHALMGLVSDDDDKVHKISIIPRGMALGVTQQLPIEDKHIYDKKDLYNKILVLLGGRAAEEVFFGKDGITTGAENDLQRATDLAYRMVSMWGMSDKVGPIAIRRVANPFLGGMTTAVDTSPDLLREIDEEVKRIITEQYEKAKAIVEEYKEPLKAVVKKLLEKETITCEEFVEVFKLYGIELKDKCKKEELFDKDRKSEENKELKSEEVKEEVV
B2: full-length Aquifex aeolicus FtsH (enzyme, UniProt O67077 1-634, looked up)
chain: B1 chain
notes: the cited crystal structure PDB 4WW0 holds only the cytosolic domain, residues 141-608; The molecule is the protomer; In LMNG it is found as a hexamer (second SEC peak) and as a dodecamer of two hexamers in one LMNG micelle (first SEC peak); Before SEC it was incubated overnight at 60 °C with 20 mM ATP, 10 mM MgCl2 and 25 uM ZnCl2; also called AaFtsH; AaFtsH wildtype; source: E. coli, …
B3: AaFtsH dodecamer (Aquifex aeolicus VF5) (protein)
chain: B1 chain

Key:
[1] = target: AaFtsH-Δ20 mutant (Aquifex aeolicus) (UniProt O67077); experiment: SEC-MALS; Superose 6 Increase 10/300 GL, 20 mM Tris-HCl pH 8.0, 150 mM NaCl, 0.01% LMNG, room temperature; protein conjugate analysis; step: subunits to hexamer (second peak)
[2] = substrate: Nc1ncnc2c1ncn2[C@@H]1O[C@H](COP(=O)(O)OP(=O)(O)OP(=O)(O)O)[C@@H](O)[C@H]1O; experiment: purified protein; conditions: 50 mM Tris-HCl pH 8.0, 150 mM NaCl, 10 mM MgCl2, 60 °C, 0.25 μM AaFtsH (monomer concentration)
[3] = target: the molecule itself; experiment: SEC-MALS; Superose 6 Increase 10/300 GL, 20 mM Tris-HCl pH 8.0, 150 mM NaCl, 0.01% LMNG, room temperature; protein conjugate analysis; step: two hexamers to a dodecamer in one LMNG micelle (first peak)
[4] = target: the molecule itself; experiment: SEC-MALS; Superose 6 Increase 10/300 GL, 20 mM Tris-HCl pH 8.0, 150 mM NaCl, 0.01% LMNG, room temperature; protein conjugate analysis; step: subunits to hexamer (second peak)

| stoichiometry N [1] | Molecule | Km [2] | kcat [2] | stoichiometry N [3] | stoichiometry N [4] |
| --- | --- | --- | --- | --- | --- |
| 6 | AaFtsH-Δ20 mutant (from UniProt O67077 1-634) (enzyme) |  |  |  |  |
|  | B1 | 600 (95% CI: 480–754) μM | 1.05 s⁻¹ |  |  |
|  | B2 |  |  | ~12 | 6 |
|  | B3 | 518 (95% CI: 432–625) μM | 1.02 s⁻¹ |  |  |

From article PMC7949044, “The cytoplasmic domain of the AAA+ protease FtsH is tilted with respect to the membrane to facilitate substrate entry” (The Journal of Biological Chemistry, 2020)
